Entries after “also recorded” stand apart in the source; their conditions may differ.
What was measured:
RIP1-Tag5 tumours [1] = experiment: Short term treatment of tumour-bearing RIP1-Tag5 mice, tumour histology; format: in vivo, mouse
Description: Short term treatment: commencing at 26-27 weeks of age mice were treated for 2 weeks with bi-weekly intravenous (i.v.) injections of recombinant proteins in 100 μl volume at 0.2 ng (equivalent to approximately […] body weight for a 30 g mouse) or 20 ng (equivalent to approximately […] body weight for a 30 g mouse) LIGHT or LIGHT-RGR. When indicated this was followed by one adoptive transfer of TagTCR8 (CD8+) T cells. Four days later, mice were sacrificed and tumours were isolated for histology. For adoptive transfer experiments, TagTCR8 lymph node cells were activated in vitro for 3 days, with 10 U of rIL-2/ml and 25 nM Tag peptide […] (SEFLIEKRI). 2.5×10^6 activated CD8^+ T cells were injected i.v once. The short term treatment regimen is shown schematically in FIG. 1
(§1) Mice were perfused with 2% neutral-buffered formalin before removal of tumours. Tumours were incubated in 10% (2 h) and 30% sucrose overnight and embedded in OCT compound. For immunohistochemistry the following antibodies were used: anti B220 (BD Pharmingen), anti-CD8 (Ly-2, BD Pharmingen), anti-CD31 (Mec 13.3., BD Pharmingen), anti-ICAM2 (3C4, BD Pharmigen), anti-CD45 (30-F11, BD Pharmingen), anti-CD68 (FA-11, BD Biosciences), anti-calponin (rabbit monoclonal EP798Y, Abcam), anti-caldesmon (rabbit monoclonal E89, Abcam), anti-collagen I or collagen IV (rabbit polyclonal, Abcam), Ki67 (PP67, Abcam), MECA79 (American type tissue culture, ATCC) and αSMA (1A4, Sigma). For secondary detection, AMCA (7-Amino-4-methylcoumarin-3-acetic acid), Cy-3 or FITC-conjugated IgG F(ab′)2 fragments (Jackson Immuno Research) were used. The αSMA staining was amplified using the mouse on mouse (M.O.M.) kit (Vector). For lectin perfusion, mice were i.v. injected with 50 μg of FITC-labelled tomato lectin (Lycopersicon esculentum, Vector). After 10 min of circulation, mice were heart-perfused with 2% neutral-buffered formalin and tumours frozen in OCT. To evaluate vessel leakiness, 1 mg of 70 kDa Texas Red Dextran (Invitrogen) was injected i.v. and allowed to circulate for 10 min. Mice were heart-perfused with PBS followed by 2% neutral buffered formalin and tumours frozen in OCT. Apoptosis was assessed using TUNEL staining (Roche). Images were recorded on a Nikon Ti-E microscope and quantified using NIS software modules (version 3.0).
To study the complex interrelationship between tumour, tumour vessels and the immune system, the inventors' analyses focused on a transgenic mouse model which develops spontaneous tumours that mimic the clinical scenario with regard to native anatomical location, slow growth kinetics, and multistep tumour progression. In RIP1-Tag5 mice, the oncogene SV40 Large T antigen (Tag; RIP, rat insulin gene promoter) is exclusively expressed in β cells of the pancreas leading to stepwise tumour development through well-characterized stages progressing from hyperplastic islets, to the initiation of Tag expression at approximately 10 weeks, the onset of blood vessel formation in angiogenic islets (termed “angiogenic switch”) at approximately 16 weeks and then to highly vascularised solid tumours at approximately 22 weeks, followed by death at approximately 30 weeks.

pericyte cell line = experiment: Calponin/caldesmin expression in pericyte cell line in vitro; format: cell-based; conditions: direct LIGHT induction; data not shown
[2] = test system: tumour resident macrophages; experiment: TGFβ secretion of ex vivo purified tumour resident macrophages (ELISA); format: cell-based, mouse; conditions: macrophages from treated tumours; data not shown
stromal cells = experiment: CCL21 secretion by stromal cells
RIP1-Tag5 tumours [3] = experiment: Long term treatment and survival studies in RIP1-Tag5 mice; format: in vivo, mouse
Description: 22 week-old RIP1-Tag5 mice were treated with bi-weekly i.v. injections of recombinant proteins as described for short term regimens for a total of 8 weeks and survival/tumour burden analysed at the set endpoint of 30 weeks. For adoptive transfer experiments, 2.5×10^6 activated TagTCR8 CD8^+ T cells were injected i.v twice (at week 4 and week 6). In adoptive transfer experiments (without LIGHT-RGR), mice received two adoptive transfers only. Chemotherapy: 22 week-old mice were treated with i.v. injections of 0.2 ng LIGHT-RGR bi-weekly over a period of 8 weeks and were simultaneously provided with […] cyclophosphamide (metronomic low dose) in drinking water throughout the experiment. The long term treatment regimen is shown schematically in FIG. 2. In addition, mice were treated with cyclophosphamide and/or LIGHT-RGR and survival monitored (death as endpoint).
For vaccination, mice were primed with one subcutaneous injection (tail base) of 50 μg recombinant Tag protein mixed with 50 μg Freund's adjuvant (Sigma). […] For combination therapies with checkpoint blockade, RIP1-Tag5 mice were treated with LIGHT-RGR (20 ng, iv, biweekly) in combination with anti-PD1 ([…].) and anti-CTLA4 ([…].) antibodies (BioXCell). In addition, mice were treated with triple combination of LIGHT-RGR/anti-PD1+anti CTL4/anti-Tag vaccine.
as §1
Cumulative survival time was calculated by the Kaplan-Meier method and analyzed by the log-rank test. Student's t test (2-tailed) was used unless indicated otherwise. A P value of less than 0.05 was considered statistically significant. Error bars indicate SD unless stated otherwise.
To study the complex interrelationship between tumour, tumour vessels and the immune system, the inventors' analyses focused on a transgenic mouse model which develops spontaneous tumours that mimic the clinical scenario with regard to native anatomical location, slow growth kinetics, and multistep tumour progression.

RIP1-Tag5 tumours [4] = experiment: Short term treatment of tumour-bearing RIP1-Tag5 mice, tumour histology; format: in vivo, mouse; conditions: 2 μg; regimen not stated
4T1 breast cancer = experiment: Breast tumour model, orthotopic 4T1 in Balb/c mice, tumour histology; format: in vivo, mouse
Description: (§2) Murine breast cancer cells (5×10^6, 4T1 from ATCC) were injected orthotopically into the mammary fat pad of Balb/c mice. […] Mice were injected with pimonidazole (hypoxia marker) and FITC-labelled lectin. After 1 h/10 min (pimonidazole/lectin, respectively) circulation, mice were perfused with 2% formalin and tumors dissected and fresh frozen in OCT compound. Tumours were analyzed by histology for vessel frequency (CD31), quality of vessel perfusion (CD31 plus lectin-FITC), caldesmon induction and frequency of intratumoral hypoxia (pimonidazole staining).
as §2, with “caldesmon (contractile pericyte marker)” for “caldesmon”

[5] = 0.2 ng i.v. bi-weekly for 2 weeks
[6] = 20 ng i.v. bi-weekly for 2 weeks

B1: LIGHT (protein, listed as Mus musculus)
chain: MESVVQPSVFVVDGQTDIPFRRLEQNHRRRRCGTVQVSLALVLLLGAGLATQGWFLLRLHQRLGDIVAHLPDGGKGSWEKLIQDQRSHQANPAAHLTGANASLIGIGGPLLWETRLGLAFLRGLTYHDGALVTMEPGYYYVYSKVQLSGVGCPQGLANGLPITHGLYKRTSRYPKELELLVSRRSPCGRANSSRVWWDSSFLGGVVHLEAGEEVVVRVPGNRLVRPRDGTRSYFGAFMV
- vessel leakiness (extravasation of 70 kDa dextran) (RIP1-Tag5 tumours [1]; 0.2 ng, 2 week treatment): leaky phenotype
- calponin/caldesmin induction in pericyte cells (pericyte cell line): not induced

B2: LIGHT-RGR (protein)
chain: MESVVQPSVFVVDGQTDIPFRRLEQNHRRRRCGTVQVSLALVLLLGAGLATQGWFLLRLHQRLGDIVAHLPDGGKGSWEKLIQDQRSHQANPAAHLTGANASLIGIGGPLLWETRLGLAFLRGLTYHDGALVTMEPGYYYVYSKVQLSGVGCPQGLANGLPITHGLYKRTSRYPKELELLVSRRSPCGRANSSRVWWDSSFLGGVVHLEAGEEVVVRVPGNRLVRPRDGTRSYFGAFMVGGGCRGRRSTG
- TGFβ secretion by tumour macrophages [2]: stimulates macrophages in the tumour environment to secrete TGFβ
- CCL21 secretion by stromal cells (stromal cells): stimulates stromal cells to secrete CCL21
- collagen IV alignment / stromal Col IV (RIP1-Tag5 tumours [1]; [5]): close vessel alignment of collagen IV; also recorded: decreased stromal Col IV
- pericyte attachment to vessels (αSMA+ pericytes) (RIP1-Tag5 tumours [1]; [5]): firm attachment of pericytes to vessels; also recorded: significantly decreased the protrusion of αSMA+ pericytes from the vasculature
- normalization of tumour vessels (histology) (RIP1-Tag5 tumours [1]; 0.2 ng i.v. bi-weekly for 2 weeks (four injections), RIP1-Tag5 mice): normalized chaotic tumour vessels
- total vessel counts / CD31 surface area (RIP1-Tag5 tumours [1]; 0.2 ng i.v. bi-weekly for 2 weeks, CD31 vessel marker): without affecting total vessel counts; also recorded: total surface area of CD31 remained intact
- tumour vessel caliber (RIP1-Tag5 tumours [1]; 0.2 ng i.v. bi-weekly for 2 weeks, small <30 μm, larger 150-200 μm): shift from large to small caliber tumour vessels; also recorded: significant increase in small vessels
- T cell infiltration, compared to either treatment on their own (RIP1-Tag5 tumours [1]; 0.2 ng in combination with adoptive transfer of in vitro activated CD8+ T cells): significantly improves T cell infiltration
- tumour perfusion (FITC-lectin staining of vessels) (RIP1-Tag5 tumours [1]; 0.2 ng, 2 week treatment): indicative of adequate perfusion; also recorded: increased tumour perfusion
- vessel leakiness (extravasation of 70 kDa dextran) (RIP1-Tag5 tumours [1]; 0.2 ng, 2 week treatment): less leaky phenotype; also recorded: reduced vascular leakiness
- CD8+ T cell infiltration (RIP1-Tag5 tumours [1]; 0.2 ng, short term): enhance CD8+ T cell infiltration
- ICAM-1 expression on tumour endothelial cells (RIP1-Tag5 tumours [1]; 0.2 ng, short term): increases expression of the inflammatory adhesion molecule ICAM-1
- expression of collagen I in normalized vessels (RIP1-Tag5 tumours [1]; 0.2 ng, short term): significantly down regulated
- expression of contractile markers calponin and caldesmon in αSMA-positive tumour pericytes (RIP1-Tag5 tumours [1]; 0.2 ng, short term): significant increase in expression; also recorded: significantly up regulated
- function of vessels within the tumour (RIP1-Tag5 tumours [1]; 0.2 ng, short term): improved the function of vessels within the tumour
- formation of ectopic lymph node structures associated with HEVs (MECA79) (RIP1-Tag5 tumours [1]; [6]): induced the formation of ectopic lymph node structures
- tumours with HEV structures (RIP1-Tag5 tumours [1]; [6]): 60-75%
- immune cell infiltration of intratumoural areas surrounding HEVs (RIP1-Tag5 tumours [1]; 20 ng, short term): heavily infiltrated with T cells and B cells
- efficacy (total tumour burden by weight) (RIP1-Tag5 tumours [1]; two week, 20 ng LIGHT-RGR with anti-PD-1/anti-CTLA4 double treatment versus single antibodies): superior to single treatment
- survival of RIP1-Tag5 mice at week 30 (RIP1-Tag5 tumours [3]; 0.2 ng LIGHT-RGR combined with adoptive T cell transfer): approximately 70%
- survival over vaccination alone or vaccination with LIGHT (RIP1-Tag5 tumours [3]; 0.2 ng in combination with anti-Tag vaccination): substantially increased survival
- inflammatory response at tumour site / tumour appearance (RIP1-Tag5 tumours [3]; 0.2 ng long term in combination with adoptive transfer of anti-Tag lymphocytes): substantial inflammatory response at the tumour site and pale
- tumour size / tumour burden (RIP1-Tag5 tumours [3]; 0.2 ng plus cyclophosphamide, 8 weeks): shift from large tumours to smaller tumours
- apoptotic tumour cells (TUNEL), compared to each treatment alone (RIP1-Tag5 tumours [3]; 0.2 ng plus low dose metronomic cyclophosphamide in drinking water, 8 weeks): significant increase in apoptotic tumour cells
- survival compared to controls (RIP1-Tag5 tumours [3]; 20 ng LIGHT-RGR with anti-PD-1 (250 μg) and anti-CTLA4 (75 μg) antibodies, week 23 to 45): significantly increased survival
- survival at 45 weeks of age (RIP1-Tag5 tumours [3]; 20 ng LIGHT-RGR with tumour specific (anti-Tag) vaccine): 30%
- RIP1-Tag5 mice alive at 45 weeks (RIP1-Tag5 tumours [3]; 20 ng LIGHT-RGR+vaccine+anti-PD-1+anti-CTLA4): 70%
- tumour cell apoptosis (TUNEL) (RIP1-Tag5 tumours [3]; 20 ng, long term): increase in tumour cell apoptosis
- tumour cell content (Dapi, H&E) (RIP1-Tag5 tumours [3]; 20 ng, long term): substantial reduction of tumour cells
- tumour necrosis at 30 weeks (RIP1-Tag5 tumours [3]; 20 ng, long term): highly necrotic
- survival compared to either treatment alone (RIP1-Tag5 tumours [3]; LIGHT-RGR in combination with cyclophosphamide from week 22): significant increased survival
- survival of RIP1-Tag5 mice at week 30 (RIP1-Tag5 tumours [3]; single treatments, LIGHT-RGR 0.2 ng, treated from week 22): approximately 30%
- effect on vessels in RIP1-Tag5 mice (RIP1-Tag5 tumours [4]): caused vessel death
- vessel normalization as shown for RIP1-Tag5 mice (4T1 breast cancer; 20 ng): reproduced all aspects of vessel normalization
- vessel normalization (4T1 breast cancer; 20 ng i.v. bi-weekly for 2 weeks, 4T1): induces vessel normalization
- contractile markers in pericytes (caldesmon) (4T1 breast cancer; 20 ng, 4T1): induced contractile markers in pericytes
- overall vascularity (CD31+ vessels) (4T1 breast cancer; 20 ng, 4T1): without change in overall vascularity
- tumour hypoxia (pimonidazole) (4T1 breast cancer; 20 ng, 4T1): reduced tumour hypoxia; also recorded: reduces tumor hypoxia
- vessel calibers (4T1 breast cancer; 20 ng, 4T1): reduced vessel calibers
- vessel perfusion (FITC-lectin) (4T1 breast cancer; 20 ng, 4T1): increases vessel perfusion
- binding affinity to tumor vessels relative to RIP1-Tag5 (4T1 breast cancer; breast cancer model): lower binding affinity to tumor vessels
- dose required to recapitulate the vessel phenotype of RIP1-Tag5 mice treated with 0.2 ng (4T1 breast cancer; breast cancer model): 20 ng

From US20200000877A1, “TREATMENT OF TUMOURS USING PEPTIDE-PROTEIN CONJUGATES” (priority 2014, published 2020)
